Measurements: paper PMC12529230, “The Lrs14‐Like AbfR1 Homolog From Metallosphaera sedula Is a Nucleoid‐Organizing Protein” (MicrobiologyOpen, 2025)

Tests used:
[1] = molecular target: the molecule itself; test: SEC; Enrich SEC 650 10 x 300 column, 20 mM HEPES, 150 mM NaCl, 1 mM DTT, 5% glycerol, pH 7.5; AbfR1 Ms concentrated to 1.9 mg/mL; MW from a standard curve
AbfR1Ms = molecular target: T1, AbfR1Ms (Metallosphaera sedula DSM5348, UniProt A4YIR2 1-115); test: EMSA; apparent; salmon sperm competitor DNA; EMSA: 20 mM Tris-HCl pH 8.0, 50 mM NaCl, 0.4 mM EDTA, 0.1 mM DTT, 1 mM MgCl2, 12.5% glycerol, 25 ug/mL sonicated salmon sperm DNA, 25 min at 37 C; AFM: same buffer, 15 min at 37 C, then NiCl2/HEPES adsorption on mica; details: protein: recombinant; tags: C-terminal His; chain copies: 2; label: 5'-32P on one strand; blunt
T1 sequence: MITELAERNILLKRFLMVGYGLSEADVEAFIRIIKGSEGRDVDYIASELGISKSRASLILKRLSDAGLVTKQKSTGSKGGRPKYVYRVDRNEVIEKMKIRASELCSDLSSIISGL

B1: AbfR1 Ms (recombinant, C-terminal His-tag) (natural protein, Metallosphaera sedula, UniProt A4YIR2 1-115, looked up)
chain: MITELAERNILLKRFLMVGYGLSEADVEAFIRIIKGSEGRDVDYIASELGISKSRASLILKRLSDAGLVTKQKSTGSKGGRPKYVYRVDRNEVIEKMKIRASELCSDLSSIISGL
notes: 115 amino acids, estimated MW 12.7 kDa; codon-optimized synthetic gene fragment (446 bp) cloned NdeI/XhoI into pET24a; No tag cleavage is described; A disulfide bridge between the two chains is proposed (C105, from an AlphaFold model and DTT sensitivity); also called Lrs14-like AbfR1 homolog from Metallosphaera sedula; HhcR; source: E. coli Rosetta (DE3), pET24a; purified (heat treatment 70°C, …)
[1]
  stoichiometry N: 2

B2: ORF abfR1Sa (dsDNA)
DNA 1: GTCTTTCTGAATCAGAAATAGACACATTTCTAAGGATACTTGAAAGCAAAGAAGGTAAGGATATTGATGCAATATCTGCAGAACTAAAAATTAGTAAAAG
DNA 2: CTTTTACTAATTTTTAGTTCTGCAGATATTGCATCAATATCCTTACCTTCTTTGCTTTCAAGTATCCTTAGAAATGTGTCTATTTCTGATTCAGAAAGAC
AbfR1Ms
  Kd: 546 nM
